Experimental data as given in the supplement of paper PMC9112550, “Optimization of the antimicrobial peptide Bac7 by deep mutational scanning” (BMC Biology, 2022).

System: Escherichia coli TOP10
Assay: shrunken log2 fold change of peptide-encoding DNA abundance (4.5 h post-induction vs induction); higher = less antimicrobial activity (less host growth inhibition)
Conditions: time post-induction: 4.5 h; library: site-saturation at positions 5, 18, 19, 20
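Also: peptides expressed intracellularly from a pBAD plasmid library in pooled LB shake-flask culture, induced with 0.3% L-arabinose, DNA abundance read by NGS, three biological replicates, DESeq2 with apeglm shrinkage.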

Sequence | shrunken log2 fold change
RRIRVRPPRLPRPRPRPYHNPRP | -0.946
RRIRYRPPRLPRPRPRPSWDPRP | -0.429
RRIRDRPPRLPRPRPRPQQEPRP | 0.00606
RRIRPRPPRLPRPRPRPTKIPRP | -0.0764
RRIRVRPPRLPRPRPRPPPPPRP | 1
RRIRRRPPRLPRPRPRPYYMPRP | -0.408
RRIRFRPPRLPRPRPRPHDLPRP | -0.203
RRIRWRPPRLPRPRPRPMLHPRP | -0.17
RRIRHRPPRLPRPRPRPCPRPRP | -0.28
RRIRARPPRLPRPRPRPEFQPRP | 0.666
RRIRCRPPRLPRPRPRPKDQPRP | -0.0507
RRIRIRPPRLPRPRPRPKDKPRP | -0.747
RRIRKRPPRLPRPRPRPAPVPRP | 0.668
RRIRLRPPRLPRPRPRPTHEPRP | 0.361
RRIRGRPPRLPRPRPRPWCKPRP | -0.184
RRIRGRPPRLPRPRPRPWPGPRP | 0.265
RRIRTRPPRLPRPRPRPNRHPRP | -0.36
RRIRNRPPRLPRPRPRPETHPRP | -0.0861
RRIRDRPPRLPRPRPRPTNWPRP | 0.111
RRIRPRPPRLPRPRPRPDEDPRP | 0.00574
RRIRARPPRLPRPRPRPWCTPRP | -0.284
RRIRTRPPRLPRPRPRPQEGPRP | -0.0173
RRIRTRPPRLPRPRPRPSAYPRP | -0.144
RRIRFRPPRLPRPRPRPNFFPRP | -0.178
RRIRHRPPRLPRPRPRPLRSPRP | 0.549

Sequence | shrunken log2 fold change
RRIRCRPPRLPRPRPRPPDDPRP | 0.523
RRIRPRPPRLPRPRPRPPFNPRP | -0.126
RRIRKRPPRLPRPRPRPAAIPRP | 0.255
RRIRMRPPRLPRPRPRPMFWPRP | 0.0479
RRIRLRPPRLPRPRPRPQICPRP | -0.0895
RRIRIRPPRLPRPRPRPALYPRP | -0.312
RRIRLRPPRLPRPRPRPTGPPRP | 0.298
RRIRPRPPRLPRPRPRPDNYPRP | -0.496
RRIRCRPPRLPRPRPRPMHDPRP | 0.0244
RRIRVRPPRLPRPRPRPDALPRP | -0.0285
RRIRWRPPRLPRPRPRPQWFPRP | -0.27
RRIRMRPPRLPRPRPRPHWGPRP | 0.12
RRIRSRPPRLPRPRPRPRTIPRP | -0.141
RRIRTRPPRLPRPRPRPSTPPRP | -0.195
RRIRYRPPRLPRPRPRPECNPRP | -0.0877
RRIRWRPPRLPRPRPRPLDWPRP | 0.355
RRIRIRPPRLPRPRPRPFKYPRP | -0.0899
RRIRCRPPRLPRPRPRPTEWPRP | 0.063
RRIRKRPPRLPRPRPRPSDSPRP | -0.132
RRIRYRPPRLPRPRPRPGCCPRP | -0.309
RRIRFRPPRLPRPRPRPRCIPRP | -0.606
RRIRARPPRLPRPRPRPIKAPRP | 0.105
RRIRYRPPRLPRPRPRPAGRPRP | 0.104
RRIRTRPPRLPRPRPRPFADPRP | -0.112
RRIRRRPPRLPRPRPRPPAQPRP | 0.535

Sequence | shrunken log2 fold change
RRIRIRPPRLPRPRPRPRTHPRP | -0.372
RRIRPRPPRLPRPRPRPRHQPRP | 0.31
RRIRHRPPRLPRPRPRPIRLPRP | -0.0644
RRIRYRPPRLPRPRPRPWGYPRP | -0.0919
RRIRCRPPRLPRPRPRPEINPRP | 0.122
RRIRVRPPRLPRPRPRPIISPRP | -0.418
RRIRFRPPRLPRPRPRPFSSPRP | -0.468
RRIRFRPPRLPRPRPRPRMNPRP | -0.173
RRIRGRPPRLPRPRPRPDDGPRP | -0.0284
RRIRDRPPRLPRPRPRPAWKPRP | 0.0693
RRIRERPPRLPRPRPRPTEGPRP | 0.0858
RRIRCRPPRLPRPRPRPSVDPRP | -0.139
RRIRFRPPRLPRPRPRPEALPRP | 0.0209
RRIRTRPPRLPRPRPRPGQGPRP | 0.0576
RRIRGRPPRLPRPRPRPIVCPRP | 0.356
RRIRFRPPRLPRPRPRPCHHPRP | -0.0196
RRIRTRPPRLPRPRPRPDNTPRP | -0.191
RRIRNRPPRLPRPRPRPFYTPRP | -1.29
RRIRWRPPRLPRPRPRPLSIPRP | -0.0528
RRIRLRPPRLPRPRPRPNCTPRP | -0.24
RRIRCRPPRLPRPRPRPMFCPRP | -0.237
RRIRTRPPRLPRPRPRPIIMPRP | -0.305
RRIRMRPPRLPRPRPRPFNWPRP | -0.0926
RRIRRRPPRLPRPRPRPAQRPRP | 0.414
RRIRSRPPRLPRPRPRPNLIPRP | -0.74

Sequence | shrunken log2 fold change
RRIRPRPPRLPRPRPRPPDRPRP | 0.583
RRIRGRPPRLPRPRPRPEILPRP | 1.22
RRIRDRPPRLPRPRPRPLKPPRP | -0.00274
RRIRRRPPRLPRPRPRPRWSPRP | 0.498
RRIRERPPRLPRPRPRPLLAPRP | 0.173
RRIRNRPPRLPRPRPRPTEEPRP | -0.00968
RRIRYRPPRLPRPRPRPVFHPRP | -0.492
RRIRYRPPRLPRPRPRPYDMPRP | -1.35
RRIRIRPPRLPRPRPRPVTHPRP | -0.256
RRIRLRPPRLPRPRPRPAPEPRP | 0.109
RRIRNRPPRLPRPRPRPHVMPRP | -0.503
RRIRWRPPRLPRPRPRPKMMPRP | -0.106
RRIRERPPRLPRPRPRPVLDPRP | -0.12
RRIRYRPPRLPRPRPRPFLTPRP | -0.871
RRIRNRPPRLPRPRPRPHHTPRP | -0.459
RRIRLRPPRLPRPRPRPCKIPRP | -0.357
RRIRYRPPRLPRPRPRPHIKPRP | -0.887
RRIRARPPRLPRPRPRPCNEPRP | -0.0554
RRIRLRPPRLPRPRPRPQIQPRP | -0.0697
RRIRARPPRLPRPRPRPDMFPRP | 0.0745
RRIRHRPPRLPRPRPRPEIAPRP | -0.0585
RRIRKRPPRLPRPRPRPFTGPRP | 0.0735
RRIRTRPPRLPRPRPRPFQEPRP | 0.00783
RRIRKRPPRLPRPRPRPDCPPRP | 0.178
RRIRSRPPRLPRPRPRPMYPPRP | -0.124

Sequence | shrunken log2 fold change
RRIRMRPPRLPRPRPRPEDAPRP | 3.45
RRIRWRPPRLPRPRPRPWKEPRP | 0.162
RRIRWRPPRLPRPRPRPMNFPRP | -0.0285
RRIRKRPPRLPRPRPRPQAGPRP | -0.00963
RRIRMRPPRLPRPRPRPQLEPRP | 0.0634
RRIRWRPPRLPRPRPRPQAIPRP | 0.204
RRIRVRPPRLPRPRPRPARSPRP | -0.024
RRIRMRPPRLPRPRPRPCDVPRP | 0.0259
RRIRQRPPRLPRPRPRPFYGPRP | -0.00903
RRIRDRPPRLPRPRPRPLTLPRP | -0.0246
RRIRPRPPRLPRPRPRPQSMPRP | -0.609
RRIRVRPPRLPRPRPRPKTAPRP | 0.0988
RRIRQRPPRLPRPRPRPICNPRP | -0.211
RRIRTRPPRLPRPRPRPAVIPRP | 0.0431
RRIRDRPPRLPRPRPRPGIKPRP | -0.165
RRIRHRPPRLPRPRPRPQNIPRP | -0.269
RRIRCRPPRLPRPRPRPQHVPRP | -0.199
RRIRGRPPRLPRPRPRPKQGPRP | 0.524
RRIRKRPPRLPRPRPRPNNMPRP | -0.304
RRIRCRPPRLPRPRPRPNVAPRP | 0.0221
RRIRQRPPRLPRPRPRPQRGPRP | 0.235
RRIRPRPPRLPRPRPRPGFPPRP | 0.355
RRIRYRPPRLPRPRPRPMICPRP | -0.0731
RRIRHRPPRLPRPRPRPGCIPRP | -1.21
RRIRCRPPRLPRPRPRPQHAPRP | -0.0229
